Values of other authors, collected in publication PMC9887155, “Kinetics of cone specific G-protein signaling in avian photoreceptor cells” (Frontiers in Molecular Neuroscience, 2023).

Molecular target: Gtα (Bos taurus) (UniProt P04695)
Assay: SPR

Sequence of Gtα (Bos taurus) (P04695 2-350): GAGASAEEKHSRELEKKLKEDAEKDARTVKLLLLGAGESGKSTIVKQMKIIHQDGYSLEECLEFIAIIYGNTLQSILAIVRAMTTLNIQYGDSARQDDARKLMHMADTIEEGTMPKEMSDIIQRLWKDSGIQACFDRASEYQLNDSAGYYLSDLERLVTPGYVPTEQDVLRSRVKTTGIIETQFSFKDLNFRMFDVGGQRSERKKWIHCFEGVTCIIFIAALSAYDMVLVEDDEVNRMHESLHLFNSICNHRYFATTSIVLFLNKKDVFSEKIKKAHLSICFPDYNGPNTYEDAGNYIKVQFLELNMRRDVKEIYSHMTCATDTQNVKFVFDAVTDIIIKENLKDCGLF
Sequence of rhodopsin (dark-adapted) (P02699 whole entry): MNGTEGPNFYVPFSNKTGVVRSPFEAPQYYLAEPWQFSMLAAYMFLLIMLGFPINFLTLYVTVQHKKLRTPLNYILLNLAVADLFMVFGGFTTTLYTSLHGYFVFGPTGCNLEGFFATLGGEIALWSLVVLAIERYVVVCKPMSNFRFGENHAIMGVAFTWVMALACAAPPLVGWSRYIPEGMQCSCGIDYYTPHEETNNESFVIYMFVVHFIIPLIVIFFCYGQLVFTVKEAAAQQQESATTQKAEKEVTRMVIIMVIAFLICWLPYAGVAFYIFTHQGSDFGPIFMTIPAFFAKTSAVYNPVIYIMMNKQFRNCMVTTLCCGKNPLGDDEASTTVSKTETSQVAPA

- Kd: 360 nM
Substance: rhodopsin (dark-adapted) (from UniProt P02699)
